According to paper PMC6056074:

Target: HLA-B*44:05 (human)
Experiment: flow cytometry on cells; peptide receptivity of surface HLA-B on TAP-sufficient CEM cells: 100 μM peptide in medium at 26°C for 2h, then 20 μg/ml brefeldin A at 37°C for 2h; W6/32 staining, signal of cells without exogenous HLA-B subtracted; read-out (MFI with peptide - MFI without peptide)/MFI with peptide*100

B1: … (EF10), B*44:05-restricted epitope (peptide)
peptide: EEFGRAFSF
percent of cell surface HLA-B that is peptide receptive: 5%
